B1: chimeric LD1 (chLD1) (antibody, V domains shown)
VH: EVQLQQPGAVLVRPGTSVKLSCKASGYTFTNHWMNWVKQRPGQGLEWIGMIHPSDSETTLDQKFKDKATLTVDKSSSTAYMQLNRPTSEDSAVYYCTRGDISLFDYWGQGTTVTVSS
VL: DIQMTQTTSSLSASLGDRVTITCRTSQDISNFLNWYQQKPDGTFKILISYTSRLHSGVPSRFSGSGSGTDYSLTISTLEQEDFATYFCQQGNALPYTFGGGTKLEIE
B2: LD1 (antibody, V domains shown)
VH: EVQLQQPGAVLVRPGTSVKLSCKASGYTFTNHWMNWVKQRPGQGLEWIGMIHPSDSETTLDQKFKDKATLTVDKSSSTAYMQLNRPTSEDSAVYYCTRGDISLFDYWGQGTTVTVSS
VL: DIQMTQTTSSLSASLGDRVTITCRTSQDISNFLNWYQQKPDGTFKILISYTSRLHSGVPSRFSGSGSGTDYSLTISTLEQEDFATYFCQQGNALPYTFGGGTKLEIE

Experiments:
Assay in all cases: SPR
[1] = molecular target: T1, mouse FGFR4-Fc chimeric protein (mouse, UniProt Q03142 17-366)
T1 chain: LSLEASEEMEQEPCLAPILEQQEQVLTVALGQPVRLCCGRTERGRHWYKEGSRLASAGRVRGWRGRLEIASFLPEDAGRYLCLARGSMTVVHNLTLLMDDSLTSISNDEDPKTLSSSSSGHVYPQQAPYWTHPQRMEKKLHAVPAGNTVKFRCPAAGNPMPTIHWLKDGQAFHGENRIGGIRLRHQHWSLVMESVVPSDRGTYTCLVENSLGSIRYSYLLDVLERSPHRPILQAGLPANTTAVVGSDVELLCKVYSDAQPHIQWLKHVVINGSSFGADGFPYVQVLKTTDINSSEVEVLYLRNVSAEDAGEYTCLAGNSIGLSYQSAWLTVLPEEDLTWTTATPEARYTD

[2] = molecular target: human FGFR4-Fc chimeric protein (UniProt P22455 22-369)
Cynomolgus FGFR4 = Cynomolgus FGFR4 (cynomolgus monkey)

Sequence of human FGFR4-Fc chimeric protein (P22455 22-369, change not shown): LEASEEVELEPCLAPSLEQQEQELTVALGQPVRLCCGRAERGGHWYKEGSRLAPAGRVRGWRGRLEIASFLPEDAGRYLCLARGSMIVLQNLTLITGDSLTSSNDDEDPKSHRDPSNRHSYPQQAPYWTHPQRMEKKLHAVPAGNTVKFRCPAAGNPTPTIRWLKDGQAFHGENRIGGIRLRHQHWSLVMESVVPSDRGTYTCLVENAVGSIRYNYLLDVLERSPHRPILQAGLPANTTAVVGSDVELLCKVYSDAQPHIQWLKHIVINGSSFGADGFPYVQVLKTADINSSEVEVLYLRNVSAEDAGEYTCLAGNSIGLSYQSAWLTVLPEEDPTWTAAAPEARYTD

Binder	Kd [1] [nM]	Kd [2] [nM]	Kd (Cynomolgus FGFR4) [nM]
B1	0.7	0.7	
B2			0.8

Reference: patent US20160237157A1 (published 2016)
